Measurements published in US20240327538A1 (AMUNIX PHARMACEUTICALS, published 2024).

Key:
[1] = target: T1, cynomolgus monkey CD3 epsilon (cynomolgus monkey, UniProt Q95LI5 22-117, limits assumed); experiment: Octet
T1 construct: also called cyCD3e
T1 sequence (looked up): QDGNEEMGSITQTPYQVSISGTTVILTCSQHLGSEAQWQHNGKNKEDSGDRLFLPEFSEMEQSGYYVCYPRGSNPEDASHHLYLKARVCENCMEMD

[2] = target: T2, human CD3 epsilon (human, UniProt P07766 23-126, limits assumed); experiment: Octet
T2 construct: also called huCD3e

[3] = target: T3, cynomolgus monkey PSMA (cynomolgus monkey, UniProt A0A2K5VNZ0 44-750); experiment: Octet
T3 construct: also called cyPSMA; Cyno PSMA

[4] = target: T4, human PSMA (human, UniProt Q04609 44-750, limits assumed); experiment: Octet
T4 construct: also called huPSMA

[5] = target: T5, hPSMA antigen (with an added HHHHHH sequence) (human, UniProt Q04609 44-750); experiment: in vitro screening of VHH from immunized llamas
T5 construct: also called human PSMA (hPSMA)

[6] = target: T6, Human CD3 (human, UniProt P07766 23-126); experiment: BLI or SPR
T6 construct: not shown: A CD3 delta partner cannot be excluded

[7] = target: T7, Cyno CD3 (cynomolgus monkey, UniProt Q95LI5 22-117); experiment: BLI or SPR
T7 construct: also called cynomolgus monkey CD3; not shown: A CD3 delta partner cannot be excluded
T7 sequence: T1 sequence (looked up)

[8] = target: T4, human PSMA; experiment: BLI or SPR
From the text: The values are reported below in Table 19 for PSMA and Table 20 for CD3.

[9] = target: T8, human PSMA-Fc (human, UniProt Q04609 44-750, limits assumed); experiment: Octet
T8 construct: also called Human PSMA-Fc fusions; not shown: Fc part

[10] = target: T8, human PSMA-Fc; experiment: linker length / domain swap comparison
[11] = target: T8, human PSMA-Fc; experiment: Octet, human PSMA-Fc
Description: Binding affinity of select PSMA PTE variants was tested by Octet.

T5 sequence (Q04609 other isoform, or with tags, fused parts or gaps limits assumed): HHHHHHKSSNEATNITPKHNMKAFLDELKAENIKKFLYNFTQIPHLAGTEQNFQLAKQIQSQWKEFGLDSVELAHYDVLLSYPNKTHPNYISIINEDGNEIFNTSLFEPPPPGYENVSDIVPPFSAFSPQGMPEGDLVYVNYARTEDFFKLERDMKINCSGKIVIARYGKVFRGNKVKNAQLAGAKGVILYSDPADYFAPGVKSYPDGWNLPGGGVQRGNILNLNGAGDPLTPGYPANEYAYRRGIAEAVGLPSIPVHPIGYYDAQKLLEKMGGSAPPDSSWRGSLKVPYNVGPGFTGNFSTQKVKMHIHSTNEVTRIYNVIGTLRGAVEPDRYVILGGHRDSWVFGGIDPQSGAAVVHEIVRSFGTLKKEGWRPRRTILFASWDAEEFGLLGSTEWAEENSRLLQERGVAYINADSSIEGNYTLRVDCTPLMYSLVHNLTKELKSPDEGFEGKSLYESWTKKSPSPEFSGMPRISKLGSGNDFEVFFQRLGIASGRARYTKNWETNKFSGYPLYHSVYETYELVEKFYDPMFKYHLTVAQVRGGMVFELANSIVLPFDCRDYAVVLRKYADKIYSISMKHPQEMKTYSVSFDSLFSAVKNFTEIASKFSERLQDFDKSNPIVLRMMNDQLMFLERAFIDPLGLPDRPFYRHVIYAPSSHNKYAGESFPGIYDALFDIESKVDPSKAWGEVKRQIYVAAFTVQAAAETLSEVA
T8 sequence (Q04609 44-750 limits assumed): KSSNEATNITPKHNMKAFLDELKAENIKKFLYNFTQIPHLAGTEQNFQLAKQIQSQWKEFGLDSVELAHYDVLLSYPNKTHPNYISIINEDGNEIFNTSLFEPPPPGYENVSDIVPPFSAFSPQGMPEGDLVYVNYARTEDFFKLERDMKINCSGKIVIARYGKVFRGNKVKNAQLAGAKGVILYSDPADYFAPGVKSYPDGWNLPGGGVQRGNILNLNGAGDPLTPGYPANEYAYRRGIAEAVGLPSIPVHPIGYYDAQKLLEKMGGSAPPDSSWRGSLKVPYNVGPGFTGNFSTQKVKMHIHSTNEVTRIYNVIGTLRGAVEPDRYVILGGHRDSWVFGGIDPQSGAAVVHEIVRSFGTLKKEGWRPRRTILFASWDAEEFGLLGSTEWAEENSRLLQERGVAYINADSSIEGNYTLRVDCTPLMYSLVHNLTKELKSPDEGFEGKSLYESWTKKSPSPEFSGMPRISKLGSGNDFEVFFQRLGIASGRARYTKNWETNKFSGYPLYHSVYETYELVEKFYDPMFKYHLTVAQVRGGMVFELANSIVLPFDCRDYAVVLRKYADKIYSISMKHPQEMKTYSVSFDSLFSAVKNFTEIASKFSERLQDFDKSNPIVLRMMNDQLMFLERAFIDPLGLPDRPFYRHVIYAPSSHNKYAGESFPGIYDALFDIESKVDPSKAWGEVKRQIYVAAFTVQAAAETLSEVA
T4 sequence (Q04609 44-750 limits assumed): as above
T2 sequence (P07766 23-126 limits assumed): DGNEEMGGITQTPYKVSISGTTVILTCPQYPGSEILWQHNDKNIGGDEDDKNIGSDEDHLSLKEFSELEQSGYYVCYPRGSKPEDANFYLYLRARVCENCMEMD
T6 sequence (P07766 23-126 limits assumed): as above

B1: uTCE from AC3445 (bispecific antibody)
chain: LTGPGTSESATPESQVQLVESGGGVVQPGRSLRLSCAASGRTFGIYVMGWVRQAPGKEREFVAAISWSGSNRKVSDSVKGRFTISRDNSKNTLYLQMNSLRAEDTAVYYCAASNRLYGRTWYDFNESDYWGQGTQVTVSSGGGGSGGGSELVVTQEPSLTVSPGGTVTLTCRSSNGAVTSSNYANWVQQKPGQAPRGLIGGTNKRAPGTPARFSGSLLGGKAALTLSGVQPEDEAVYYCALWYPNLWVFGGGTKLTVLSESATPESGPGTSPGATPESGPGTSESATPEVQLLESGGGIVQPGGSLKLSCAASGFTFNTYAMNWVRQAPGKGLEWVARIRSKYNNYATYYADSVKDRFTISRDDSKNTVYLQMNNLKTEDTAVYYCVRHENFGNSYVSWFAHWGQGTLVTVSSGTATPESGPGEAGRSANHTPAG
notes: unmasked TCE released from this paTCE; also called PSMA.119-CD3.23 uTCE
Kd [1]: 40 nM | Kd [2]: 34.8 nM | Kd [3]: 47.5 nM | Kd [4]: 6.2 nM

B2: CB01A01R3 (VHH)
VHH: EVQLVESGGGLVQAGGSLRISCTASERSVSTYTKGWFRQAPGKERHLVAAISYNGDTTYYSDSVKGRFTISRDNVKNTVNLQMNSLKPEDTAVYFCAARGSSWLYGTWDDYHYWGQGTQVTVSS
binding result [5]: binds

B3: AMX-500(1x-C) (bispecific antibody)
chain: ASSATPESGPGTSTEPSEGSAPGTSESATPESGPGSGPGTSESATPGTSESATPESGPGSEPATSGSETPGTSESATPESGPGTSTEPSEGSAPGSPAGSPTSTEEGTSESATPESGPGSEPATSGSETPGTSESATPESGPGSPAGSPTSTEEGSPAGSPTSTEEGTSTEPSEGSAPGTSESATPESGPGTSESATPESGPGTSESATPESGPGSEPATSGSETPGSEPATSGSETPGSPAGSPTSTEEGTSTEPSEGSAPGTSTEPSEGSAPGSEPATSGSETPGTSESATPEAGRSASHTPAGLTGPGTSESATPESQVQLVESGGGVVQPGRSLRLSCAASGRTFGIYVWGWFRQAPGKEREFVGAMSWSGSNRKVSDSVKGRFTISRDNSKNTLYLQMNSLRAEDTAVYYCAASNKEYGRTWYDFNESDYWGQGTQVTVSSGGGGSGGGSELVVTQEPSLTVSPGGTVTLTCRSSNGAVTSSNYANWVQQKPGQAPRGLIGGTNKRAPGTPARFSGSLLGGKAALTLSGVQPEDEAVYYCALWYPNLWVFGGGTKLTVLSESATPESGPGTSPGATPESGPGTSESATPEVQLVESGGGIVQPGGSLRLSCAASGFTFSTYAMNWVRQAPGKGLEWVGRIRTKRNNYATYYADSVKGRFTISRDDSKNTVYLQMNSLKTEDTAVYYCVRHENFGNSYVSWFAHWGQGTLVTVSSGTATPESGPGEAGRSASHTPAGLTGPATPESGPGTSESATPESGPGSPAGSPTSTEEGTSESATPESGPGSEPATSGSETPGTSESATPESGPGTSTEPSEGSAPGTSTEPSEGSAPGTSTEPSEGSAPGTSTEPSEGSAPGTSTEPSEGSAPGTSTEPSEGSAPGSPAGSPTSTEEGTSTEPSEGSAPGTSESATPESGPGSEPATSGSETPGTSESATPESGPGSEPATSGSETPGTSESATPESGPGTSTEPSEGSAPGTSESATPESGPGSPAGSPTSTEEGSPAGSPTSTEEGSPAGSPTSTEEGTSESATPESGPGTSTEPSEGSAPGTSESATPESGPGSEPATSGSETPGTSESATPESGPGSEPATSGSETPGTSESATPESGPGTSTEPSEGSAPGSPAGSPTSTEEGTSESATPESGPGSEPATSGSETPGTSESATPESGPGSPAGSPTSTEEGSPAGSPTSTEEGTSTEPSEGSAPGTSESATPESGPGTSESATPESGPGTSPSATPESGPGSEPATSGSETPGSEPATSGSETPGSPAGSPTSTEEGTSTEPSEGSAPGTSTEPSEGSAPGSEPATSGSETPGTSESAGEPEA
Kd [6]: 34.4 nM | Kd [7]: 26.7 nM | Kd [8]: 353 nM

B4: uTCE of AC3353 (bispecific antibody)
chain: LTGPATSGSETPGTQVQLVESGGGVVQPGRSLRLSCAASGRTFGIYVMGWVRQAPGKEREFVAAISWSGSNRLVSDSVKGRFTISRDNSKNTLYLQMNSLRAEDTAVYYCAASNRLYGRTWYDFNESDYWGQGTQVTVSSGGGGSELVVTQEPSLTVSPGGTVTLTCRSSNGAVTSSNYANWVQQKPGQAPRGLIGGTNKRAPGTPARFSGSLLGGKAALTLSGVQPEDEAVYYCALWYPNLWVFGGGTKLTVLGATPPETGAETESPGETTGGSAESEPPGEGEVQLLESGGGIVQPGGSLKLSCAASGFTFNTYAMNWVRQAPGKGLEWVARIRSKYNNYATYYADSVKDRFTISRDDSKNTVYLQMNNLKTEDTAVYYCVRHENFGNSYVSWFAHWGQGTLVTVSSGTAEAASASGEAGRSANHTPAG
notes: unmasked TCE of this paTCE; 5-residue VHH-scFv linker; also called PSMA.5 (5 mer)
Kd [9]: 2.1 nM | Kd [10]: 2.1 nM | koff [10]: 0.00022 s⁻¹ | kon [10]: 110000 M⁻¹ s⁻¹

B5: CB01B02R3 (VHH)
VHH: QVQLVESGGGLVQAGDSLRLSCVTSGRTFDVYAMGWFRQAPGKERELVAAINWSGSNKFHADSVKGRFTISRDNAWKTLSLQMNSLKPEDTAVYFCAASTRLYGTTWYEFNDSDYWGQGTQVTVSS
notes: also called PSMA.3
binding result [5]: binds

B6: uTCE of AC3354 (bispecific antibody)
chain: LTGPATSGSETPGTQVQLVESGGGVVQPGRSLRLSCAASGRTFGIYVMGWVRQAPGKEREFVAAISWSGSNRLVSDSVKGRFTISRDNSKNTLYLQMNSLRAEDTAVYYCAASNRLYGRTWYDFNESDYWGQGTQVTVSSGATPPETGAETESPGELVVTQEPSLTVSPGGTVTLTCRSSNGAVTSSNYANWVQQKPGQAPRGLIGGTNKRAPGTPARFSGSLLGGKAALTLSGVQPEDEAVYYCALWYPNLWVFGGGTKLTVLGATPPETGAETESPGETTGGSAESEPPGEGEVQLLESGGGIVQPGGSLKLSCAASGFTFNTYAMNWVRQAPGKGLEWVARIRSKYNNYATYYADSVKDRFTISRDDSKNTVYLQMNNLKTEDTAVYYCVRHENFGNSYVSWFAHWGQGTLVTVSSGTAEAASASGEAGRSANHTPAG
notes: unmasked TCE of this paTCE; 15-residue VHH-scFv linker; also called PSMA.5 (15 mer)
Kd [9]: 3.5 nM | Kd [10]: 3.5 nM | koff [10]: 0.00027 s⁻¹ | kon [10]: 77000 M⁻¹ s⁻¹

B7: P01G03R3 (VHH)
VHH: EVQLVESGGGLVQAGGSLRLSCVVSGIAFSPYHMAWYRQAPGKQHEWVAVITTGGTTAYNETVEGRFSISRDNARSTVYLQMNSLKPEDTAVYYCNIYGLSLKWGQGTQVTVSS
binding result [5]: binds

B8: P01C01R3 (VHH)
VHH: QVQLVESGGGLVQAGGSLRLSCAASGRTVNSYAMGWFRQAPGKEREFVASQSWMGAITYDADYADSVKGRFTISRDNAKNTLYLQMNSLKPEDTAVYRCAASRQARPGLHVREYDVWGQGTQVTVSS
binding result [5]: binds

B9: P01E02R3 (VHH)
VHH: EVQLVESGGGLVQAGGSLKLSCVANGPTFSTYAMAWFRQAPGKEHEFVAAITGDGDTTNNADSVKGRFTISRDNAKNRVYLQLNSLKPEDTAAYYCAAGVHHTYTIPRLWLYWGQGTQVTVSS
binding result [5]: binds

B10: uTCE of AC3356 (bispecific antibody)
chain: LTGPATSGSETPGTQVQLVESGGGVVQPGRSLRLSCAASGRTFGIYVMGWVRQAPGKEREFVAAISWSGSNRLVSDSVKGRFTISRDNSKNTLYLQMNSLRAEDTAVYYCAASNRLYGRTWYDFNESDYWGQGTQVTVSSGGGGSGGGSEVQLLESGGGIVQPGGSLKLSCAASGFTFNTYAMNWVRQAPGKGLEWVARIRSKYNNYATYYADSVKDRFTISRDDSKNTVYLQMNNLKTEDTAVYYCVRHENFGNSYVSWFAHWGQGTLVTVSSGATPPETGAETESPGETTGGSAESEPPGEGELVVTQEPSLTVSPGGTVTLTCRSSNGAVTSSNYANWVQQKPGQAPRGLIGGTNKRAPGTPARFSGSLLGGKAALTLSGVQPEDEAVYYCALWYPNLWVFGGGTKLTVLGTAEAASASGEAGRSANHTPAG
notes: unmasked TCE of this paTCE; CD3.23 in VH-VL order; also called PSMA.5 (domain swap)
Kd [9]: 2.4 nM | Kd [10]: 2.4 nM | koff [10]: 0.00018 s⁻¹ | kon [10]: 76000 M⁻¹ s⁻¹

B11: uTCE of AC3342 (bispecific antibody, V domains shown)
VH: QVQLVESGGGVVQPGRSLRLSCAASGRTFGIYVMGWVRQAPGKEREFVAAISWSGSNRLVSDSVKGRFTISRDNSKNTLYLQMNSLRAEDTAVYYCAASNKLYGRTWYDFNESDYWGQGTQVTVSS
notes: VHH in uTCE with CD3.23 scFv (VL-VH), 9-residue linker; also called PSMA.132; R101K
Kd [9]: 5.6 nM | Kd [11]: 5.6 nM | koff [11]: 0.000479 s⁻¹ | kon [11]: 86600 M⁻¹ s⁻¹

B12: CB01H01R3 (VHH)
VHH: EVQLVESGGGSVQAGGSLSLSCVASGRTFGIYVMGWFRQAPGKEREFVAAISWSGSNRLVSDSVKGRFTISRENAKNTIYLQMNGLKPEDTANYFCAASNRLYGRTWYDFNESDYWGQGTQVTVSS
notes: also called PSMA.2
binding result [5]: binds
